In US12384850 (SYSTIMMUNE, dated 2025):

B1: SI-35E21 (bispecific antibody, not shown: small tags and cut ends)
heavy (part 1 of 7): DIQMTQSPSTLSASVGDRVTITCQSSQSVYSNWFSWYQQKPGKAPKLLIYSASTLASGVPSRFSGSGSGTEFTLTISSLQPDDFATYYCAGGYNTVIDTFAFGGGTKVEIK
heavy (part 2 of 7): EVQLLESGGGLVQPGGSLRLSCAASGIDFSRRYYMCWVRQAPGKGLEWIACIYTGSRDTPHYASSAKGRFTISRDNSKNTLYLQMNSLRAEDTAVYYCAREGSLWGQGTLVTVSS
heavy (part 3 of 7): not shown
heavy (part 4 of 7): EVQLVESGGGLVQPGGSLRLSCTASGFSLSSYAMSWVRQAPGRGLEWIGIIYASGSTYYASSAKGRFTISKDNTKNTVDLQMNSLRAEDTAVYYCARIYDGMDLWGQGTLVTVSS
heavy (part 5 of 7): DIQMTQSPSSLSASVGDRVTINCQASQNIYSYLSWYQQKPGKVPKRLIYLASTLASGVPSRFSGSGSGTDYTLTISSLQPEDVATYYCQSNYNGNYGFGGGTKVEIK
heavy (part 6 of 7): EVQLVESGGGLVQPGGSLRLSCAASGFTISTNAMSWVRQAPGKGLEWIGVITGRDITYYASWAKGRFTISRDNSKNTLYLQMNSLRAEDTAVYYCARDGGSSAITSNNIWGQGTLVTVSS
heavy (part 7 of 7): DVVMTQSPSTLSASVGDRVTINCQASESISSWLAWYQQKPGKAPKLLIYEASKLASGVPSRFSGSGSGTEFTLTISSLQPDDFATYYCQGYFYFISRTYVNSFGGGTKVEIK
light: AYDMTQSPSSVSASVGDRVTIKCQASEDIYSFLAWYQQKPGKAPKLLIHSASSLASGVPSRFSGSGSGTDFTLTISSLQPEDFATYYCQQGYGKNNVDNAFGGGTKVEIKRTVAAPSVFIFPPSDEQLKSGTASVVCLLNNFYPREAKVQWKVDNALQSGNSQESVTEQDSKDSTYSLSSTLTLSKADYEKHKVYACEVTHQGLSSPVTKSFNRGEC
notes: Tetra-specific; the listing has only VHv3/VLv2
B2: SI-35E20 (bispecific antibody, not shown: small tags and cut ends)
heavy (part 1 of 7): DVVMTQSPSSVSASVGDRVTITCQASQNIRTYLSWYQQKPGKAPKLLIYAAANLASGVPSRFSGSGSGTDFTLTISDLEPGDAATYYCQSTYLGTDYVGGAFGGGTKVEIK
heavy (part 2 of 7): RSLVESGGGLVQPGGSLRLSCTASGFTISSYHMQWVRQAPGKGLEYIGTISSGGNVYYASSARGRFTISRPSSKNTVDLQMNSLRAEDTAVYYCARDSGYSDPMWGQGTLVTVSS
heavy (part 3 of 7): not shown
heavy (part 4 of 7): EVQLLESGGGLVQPGGSLRLSCAASGFTISRYHMTWVRQAPGKGLEWIGHIYVNNDDTDYASSAKGRFTISRDNSKNTLYLQMNSLRAEDTATYFCARLDVGGGGAYIGDIWGQGTLVTVSS
heavy (part 5 of 7): DIQMTQSPSSLSASVGDRVTITCQSSQSVYNNNDLAWYQQKPGKVPKLLIYYASTLASGVPSRFSGSGSGTDFTLTISSLQPEDVATYYCAGGYDTDGLDTFAFGGGTKVEIK
heavy (part 6 of 7): B1 heavy (part 6 of 7)
heavy (part 7 of 7): B1 heavy (part 7 of 7)
light: B1 light
notes: as for B1
B3: SI-35E25 (bispecific antibody, not shown: small tags and cut ends)
heavy (part 1 of 7): ALVMTQSPSTLSASVGDRVTINCQASEDIDTYLAWYQQKPGKAPKLLIFYASDLASGVPSRFSGSGSGTEFTLTISSLQPDDFATYYCQGGYYTSSADTRGAFGGGTKVEIK
heavy (part 2 of 7): QSLVESGGGLVQPGGSLRLSCAASGFSFSSNYWICWVRQAPGKGLEWIACIYVGSSGDTYYASSAKGRFTISRDNSKNTLYLQMNSLRAEDTAVYYCARDSSSYYMFNLWGQGTLVTVSS
heavy (part 3 of 7): not shown
heavy (part 4 of 7): EVQLVESGGGLVQPGGSLRLSCAASGFSLNNYWMSWVRQAPGKGLEWIGTISSGAYTWFATWATGRFTISRDNSKNTLYLQMNSLRAEDTAVYYCARYSSTTDWTYFNIWGQGTLVTVSS
heavy (part 5 of 7): DIQMTQSPSTLSASVGDRVTITCQASQSINNYLAWYQQKPGKAPKLLIYRASTLESGVPSRFSGSGSGTEFTLTISSLQPDDFATYYCQSYNGVGRTAFGGGTKVEIK
heavy (part 6 of 7): B1 heavy (part 6 of 7)
heavy (part 7 of 7): B1 heavy (part 7 of 7)
light: B1 light
notes: as for B1
B4: SI-35E24 (bispecific antibody, not shown: small tags and cut ends)
heavy (part 1 of 7): B1 heavy (part 1 of 7)
heavy (part 2 of 7): B1 heavy (part 2 of 7)
heavy (part 3 of 7): not shown
heavy (part 4 of 7): B3 heavy (part 4 of 7)
heavy (part 5 of 7): B3 heavy (part 5 of 7)
heavy (part 6 of 7): B1 heavy (part 6 of 7)
heavy (part 7 of 7): B1 heavy (part 7 of 7)
light: B1 light
notes: Tetra-specific; the listing has only VHv3/VLv2; also called SI-3524
B5: SI-35E22 (bispecific antibody, not shown: small tags and cut ends)
heavy (part 1 of 7): B3 heavy (part 1 of 7)
heavy (part 2 of 7): B3 heavy (part 2 of 7)
heavy (part 3 of 7): not shown
heavy (part 4 of 7): B1 heavy (part 4 of 7)
heavy (part 5 of 7): B1 heavy (part 5 of 7)
heavy (part 6 of 7): B1 heavy (part 6 of 7)
heavy (part 7 of 7): B1 heavy (part 7 of 7)
light: B1 light
notes: as for B1
B6: SI-35E23 (bispecific antibody, not shown: small tags and cut ends)
heavy (part 1 of 7): B2 heavy (part 1 of 7)
heavy (part 2 of 7): B2 heavy (part 2 of 7)
heavy (part 3 of 7): not shown
heavy (part 4 of 7): B1 heavy (part 4 of 7)
heavy (part 5 of 7): B1 heavy (part 5 of 7)
heavy (part 6 of 7): B1 heavy (part 6 of 7)
heavy (part 7 of 7): B1 heavy (part 7 of 7)
light: B1 light
notes: as for B1
B7: SI-35E26 (bispecific antibody, not shown: small tags and cut ends)
heavy (part 1 of 7): B2 heavy (part 1 of 7)
heavy (part 2 of 7): B2 heavy (part 2 of 7)
heavy (part 3 of 7): not shown
heavy (part 4 of 7): B3 heavy (part 4 of 7)
heavy (part 5 of 7): B3 heavy (part 5 of 7)
heavy (part 6 of 7): B1 heavy (part 6 of 7)
heavy (part 7 of 7): B1 heavy (part 7 of 7)
light: B1 light
notes: as for B1
B8: SI-35E19 (bispecific antibody, not shown: small tags and cut ends)
heavy (part 1 of 7): B3 heavy (part 1 of 7)
heavy (part 2 of 7): B3 heavy (part 2 of 7)
heavy (part 3 of 7): not shown
heavy (part 4 of 7): B2 heavy (part 4 of 7)
heavy (part 5 of 7): B2 heavy (part 5 of 7)
heavy (part 6 of 7): B1 heavy (part 6 of 7)
heavy (part 7 of 7): B1 heavy (part 7 of 7)
light: B1 light
notes: as for B1

How the values were obtained:
human 41BB = target: T1, human 41BB (human, UniProt Q07011 24-255); experiment: FACS on human 41BB transfected CHO cells
T1 construct: whole, on cells; also called 41BB expressing CHO cells; human 41BB transfected CHO cells
T1 sequence (Q07011 24-255): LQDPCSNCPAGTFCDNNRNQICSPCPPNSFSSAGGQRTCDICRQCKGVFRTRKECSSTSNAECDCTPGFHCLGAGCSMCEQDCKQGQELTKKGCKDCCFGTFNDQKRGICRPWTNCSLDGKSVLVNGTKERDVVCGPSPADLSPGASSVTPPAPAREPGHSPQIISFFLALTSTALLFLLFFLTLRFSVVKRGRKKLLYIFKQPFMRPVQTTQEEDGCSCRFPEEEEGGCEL
Experimental: (§1) Example 2: FACS Analysis of Tetra-Specific GNC Antibody Binding to Human 41BB Transfected CHO Cells The tetra-specific GNC antibodies listed in TABLEs 3 and 4 were tested for binding to Chinese hamster ovary cells (CHO) cells stably expressing a full-length human ROR1. Antibodies were prepared at 2× final concentration and titrated 1:5 across 3 wells of a 96 well plate in 50 ul of PBS/2% FBS and then 5,000 ROR1-CHO cells in 50 ul PBS/2% FBS were added. This mixture was incubated for 30 minutes on ice, washed once with 200 ul PBS/2% FBS, and then the secondary antibody PE Goat anti-Human IgG Fc at 1:1000 dilution of stock was added, and this mixture was incubated for 30 minutes on ice. Cells were washed 2×200 ul PBS/2% FBS, resuspended in 50 ul PBS/2% FBS and analyzed on a BD LSRFORTESSA and the binding profile is shown in FIG. 5. All of the tetra-specific GNC antibodies except for the control SI-27E12 contain a 41BB binding domain, 460C3, 420H5, or 466F6 and bound to 41BB expressing CHO cells with varying intensity.

human PD-L1 = target: T2, human PD-L1 (human, UniProt Q9NZQ7 19-290); experiment: FACS on human PD-L1 transfected CHO cells
T2 construct: whole, on cells; also called PDL1 expressing CHO cells; human PD-L1 transfected CHO cells
T2 sequence (Q9NZQ7 19-290): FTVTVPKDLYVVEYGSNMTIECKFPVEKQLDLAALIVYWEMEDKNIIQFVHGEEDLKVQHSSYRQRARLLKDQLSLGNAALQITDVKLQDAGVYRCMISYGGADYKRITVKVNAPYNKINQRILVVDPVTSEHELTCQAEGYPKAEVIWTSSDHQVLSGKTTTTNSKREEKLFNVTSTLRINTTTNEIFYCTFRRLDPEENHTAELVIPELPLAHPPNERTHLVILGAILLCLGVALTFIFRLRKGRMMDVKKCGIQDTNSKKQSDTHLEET
Experimental: as §1, with “3:” for “2:”, “PDL1” for “41BB”, “[…]” for “a full-length”, “6.” for “5. All of the tetra-specific GNC antibodies except for the control SI-27E12 contain a 41BB binding domain, 460C3, 420H5, or 466F6 and bound to 41BB expressing CHO cells with varying intensity.”

full-length human ROR1 = target: T3, full-length human ROR1 (human, UniProt Q01973 30-937); experiment: FACS on CHO cells stably expressing full-length human ROR1
T3 construct: whole, on cells; also called human ROR1 transfected CHO cells; ROR1-CHO cells
T3 sequence (Q01973 30-937): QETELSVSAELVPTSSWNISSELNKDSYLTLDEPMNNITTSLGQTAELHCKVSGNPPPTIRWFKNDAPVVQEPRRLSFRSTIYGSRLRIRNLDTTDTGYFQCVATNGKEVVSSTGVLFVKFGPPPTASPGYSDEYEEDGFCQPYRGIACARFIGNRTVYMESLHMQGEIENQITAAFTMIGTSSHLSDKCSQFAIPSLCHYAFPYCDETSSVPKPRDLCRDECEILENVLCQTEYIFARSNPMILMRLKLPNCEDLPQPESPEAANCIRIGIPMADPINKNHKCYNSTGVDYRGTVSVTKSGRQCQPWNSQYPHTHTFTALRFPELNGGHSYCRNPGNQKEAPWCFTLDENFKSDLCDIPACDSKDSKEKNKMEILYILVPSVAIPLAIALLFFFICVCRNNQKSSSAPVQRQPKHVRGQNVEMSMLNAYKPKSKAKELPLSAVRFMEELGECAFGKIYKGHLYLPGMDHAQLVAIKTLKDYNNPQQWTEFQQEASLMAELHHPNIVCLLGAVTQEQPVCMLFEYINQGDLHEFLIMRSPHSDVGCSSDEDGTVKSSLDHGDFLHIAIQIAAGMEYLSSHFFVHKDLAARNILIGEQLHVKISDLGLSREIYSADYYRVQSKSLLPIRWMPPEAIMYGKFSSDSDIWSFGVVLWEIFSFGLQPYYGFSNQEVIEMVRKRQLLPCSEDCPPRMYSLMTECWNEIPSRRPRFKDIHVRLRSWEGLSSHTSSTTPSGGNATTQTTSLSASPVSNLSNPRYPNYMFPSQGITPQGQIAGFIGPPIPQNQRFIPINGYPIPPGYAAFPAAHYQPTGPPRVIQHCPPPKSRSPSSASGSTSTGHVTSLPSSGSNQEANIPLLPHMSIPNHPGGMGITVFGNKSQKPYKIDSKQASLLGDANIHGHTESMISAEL
Experimental: as §1, with “Example 1:” for “Example 2:”, “Tetra-Specific Specific” for “Tetra-Specific GNC”, “Human ROR1” for “Human 41BB”, “FIG. 4.” for “FIG. 5. All of the tetra-specific GNC antibodies except for the control SI-27E12 contain a 41BB binding domain, 460C3, 420H5, or 466F6 and bound to 41BB expressing CHO cells with varying intensity.”

Row | Binder | binding result (human 41BB) | binding result (human PD-L1) | binding result (full-length human ROR1)
1 | B1 | binds | binds | binds
2 | B2 | binds | binds | binds
3 | B3 | binds | binds | no binding
4 | B4 | binds | binds | no binding
5 | B5 | binds | binds | binds
6 | B6 | binds | binds | binds
7 | B7 | binds | binds | no binding
8 | B8 | binds | binds | binds
